Experiments:
[1] = target: CUB_C_TSG6 (the CUB domain and C-terminal 27 amino acids of human TSG-6) (human, UniProt P98066 129-277); assay: SPR
[2] = target: Full-length recombinant human TSG-6 (human, UniProt P98066 18-277); assay: SPR
Chain of Full-length recombinant human TSG-6 (P98066 18-277): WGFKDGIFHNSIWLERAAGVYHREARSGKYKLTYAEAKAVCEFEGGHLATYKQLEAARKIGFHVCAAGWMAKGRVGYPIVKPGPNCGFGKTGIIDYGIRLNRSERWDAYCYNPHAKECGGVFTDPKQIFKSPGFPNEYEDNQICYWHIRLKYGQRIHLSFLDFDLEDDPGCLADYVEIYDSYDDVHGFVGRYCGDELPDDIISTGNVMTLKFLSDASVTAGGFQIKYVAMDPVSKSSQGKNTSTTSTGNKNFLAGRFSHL

Chain of CUB_C_TSG6 (the CUB domain and C-terminal 27 amino acids of human TSG-6) (P98066 129-277): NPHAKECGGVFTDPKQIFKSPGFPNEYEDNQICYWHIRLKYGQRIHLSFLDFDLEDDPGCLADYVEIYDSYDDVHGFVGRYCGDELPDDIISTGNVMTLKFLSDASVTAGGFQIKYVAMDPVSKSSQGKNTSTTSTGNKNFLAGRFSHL

Binder | Kd [1] | Kd [2]
BMP-13 (ligand, UniProt Q6KF10 336-455, looked up) TAFASRHGKRHGKKSRLRCSKKPLHVNFKELGWDDWIIAPLEYEAYHCEGVCDFPLRSHLEPTNHAIIQTLMNSMDPGSTPPSCCVPTKLTPISILYIDAGNNVVYKQYEDMVVESCGCR | 6880 nM | 236 nM
BMP-14 (ligand, UniProt P43026 382-501, looked up) APLATRQGKRPSKNLKARCSRKALHVNFKDMGWDDWIIAPLEYEAFHCEGLCEFPLRSHLEPTNHAVIQTLMNSMDPESTPPTCCVPTRLSPISILFIDSANNVVYKQYEDMVVESCGCR | 10800 nM | 184 nM

Further lines, results first:

Kd [1] | Kd [2] | Binder
2540 nM | 220 nM | bone morphogenetic protein-2 (ligand, UniProt P12643 283-396, looked up) QAKHKQRKRLKSSCKRHPLYVDFSDVGWNDWIVAPPGYHAFYCHGECPFPLADHLNSTNHAIVQTLVNSVNSKIPKACCVPTELSAISMLYLDENEKVVLKNYQDMVVEGCGCR
 | 1970 nM | soluble receptor activator of NF-κB ligand (ligand, UniProt O14788 140-317, looked up) IRAEKAMVDGSWLDLAKRSKLEAQPFAHLTINATDIPSGSHKVSLSSWYHDRGWAKISNMTFSNGKLIVNQDGFYYLYANICFRHHETSGDLATEYLQLMVYVTKTSIKIPSSHTLMKGGSTKYWSGNSEFHFYSINVGGFFKLRSGEEISIEVSNPSLLDPDQDATYFGAFKVRDID
